Target: Hsp90 (hsp82 gene from Saccharomyces cerevisiae) with a C-terminal coiled-coil domain (Saccharomyces cerevisiae)

ATPase rate of Hsp90 with freely added Cdc37 and equimolar Ste11: Cdc37's reducing effect is abrogated: 1.1 ATP/min
B1: free Cdc37 with the S14E phosphomimic (natural protein)
chain: MAIDYSKWDKIELEDDSDVEVHPNVDKKSFIKWKQQSIHEQRFKRNQDIKNLETQVDMYSHLNKRVDRILSNLPESSLTDLPAVTKFLNANFDKMEKSKGENVDPEIATYNEMVEDLFEQLAKDLDKEGKDSKSPSLIRDAILKHRAKIDSVTVEAKKKLDELYKEKNAHISSEDIHTGFDSSFMNKQKGGAKPLEATPSEALSSAAESNILNKLAKSSVPQTFIDFKDDPMKLAKETEEFGKISINEYSKSQKFLLEHLPIISEQQKDALMMKAFEYQLHGDDKMTLQVIHQSELMAYIKEIYDMKKIPYLNPMELSNVINMFFEKVIFNKDKPMGKESFLRSVQEKFLHIQKRSKILQQEEMDESNAEGVETIQLKSLDDSTELEVNLPDFNSKDPEEMKKVKVFKTLIPEKMQEAIMTKNLDNINKVFEDIPIEEAEKLLEVFNDIDIIGIKAILENEKDFQSLKDQYEQDHEDATMENLSLNDRDGGGDNHEEVKHTADTVD

Reference: publication PMC10794413
